Test [1] deals with human somatostatin receptor subtype SSTR4 (human) (UniProt P31391). Briefly: FACS, transfected HEK-293 cells.
Test [2] has as its target human somatostatin receptor subtype SSTR1 (human) (UniProt P30872). Briefly: FACS, transfected HEK-293 cells. On the technique in general: A flow cytometer gives signals particle by particle.
In test [3] the target is human somatostatin receptor subtype SSTR3 (human) (UniProt P32745). Briefly: FACS, transfected HEK-293 cells.
Test [4] deals with human somatostatin receptor subtype SSTR2 (human) (UniProt P30874). Kind of test: FACS, transfected HEK-293 cells.
Chain of human somatostatin receptor subtype SSTR2 (human) (P30874 whole entry): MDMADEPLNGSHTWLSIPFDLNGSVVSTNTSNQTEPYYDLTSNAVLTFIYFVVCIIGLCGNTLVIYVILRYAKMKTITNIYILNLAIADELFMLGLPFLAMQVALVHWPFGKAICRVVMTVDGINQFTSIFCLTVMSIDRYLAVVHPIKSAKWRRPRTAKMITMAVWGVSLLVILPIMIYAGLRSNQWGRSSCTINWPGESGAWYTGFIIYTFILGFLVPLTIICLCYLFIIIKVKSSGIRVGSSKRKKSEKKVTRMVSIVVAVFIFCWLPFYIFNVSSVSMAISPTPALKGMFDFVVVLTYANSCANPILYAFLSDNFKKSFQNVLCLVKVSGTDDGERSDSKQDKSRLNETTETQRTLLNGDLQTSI
Test [5] concerns the target human somatostatin receptor subtype SSTR5 (human) (UniProt P35346). Briefly: FACS, transfected HEK-293 cells.
Test [6] deals with human somatostatin receptor subtype SSTR4 (human) (UniProt P31391). Briefly: FACS, transfected HEK-293 cells; row normalised to highest.
The target of test [7] is human somatostatin receptor subtype SSTR1 (human) (UniProt P30872). The description is as above.
Chain of human somatostatin receptor subtype SSTR1 (human) (P30872 whole entry): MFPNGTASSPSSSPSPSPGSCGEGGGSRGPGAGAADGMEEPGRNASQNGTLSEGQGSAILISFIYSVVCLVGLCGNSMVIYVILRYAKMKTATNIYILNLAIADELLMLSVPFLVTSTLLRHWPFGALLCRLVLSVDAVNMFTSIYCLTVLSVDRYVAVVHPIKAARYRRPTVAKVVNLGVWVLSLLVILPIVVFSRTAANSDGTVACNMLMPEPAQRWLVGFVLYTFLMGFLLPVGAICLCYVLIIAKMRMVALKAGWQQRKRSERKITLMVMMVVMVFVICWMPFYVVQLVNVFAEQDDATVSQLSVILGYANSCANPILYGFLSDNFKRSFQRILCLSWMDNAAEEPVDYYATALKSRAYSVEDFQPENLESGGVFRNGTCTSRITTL
The target of test [8] is human somatostatin receptor subtype SSTR3 (human) (UniProt P32745). The description is as above.
In test [9] the target is human somatostatin receptor subtype SSTR2 (human) (UniProt P30874). The test is described as above.
In test [10] the target is human somatostatin receptor subtype SSTR5 (human) (UniProt P35346). The description is as above.
Chain of human somatostatin receptor subtype SSTR5 (human) (P35346 whole entry): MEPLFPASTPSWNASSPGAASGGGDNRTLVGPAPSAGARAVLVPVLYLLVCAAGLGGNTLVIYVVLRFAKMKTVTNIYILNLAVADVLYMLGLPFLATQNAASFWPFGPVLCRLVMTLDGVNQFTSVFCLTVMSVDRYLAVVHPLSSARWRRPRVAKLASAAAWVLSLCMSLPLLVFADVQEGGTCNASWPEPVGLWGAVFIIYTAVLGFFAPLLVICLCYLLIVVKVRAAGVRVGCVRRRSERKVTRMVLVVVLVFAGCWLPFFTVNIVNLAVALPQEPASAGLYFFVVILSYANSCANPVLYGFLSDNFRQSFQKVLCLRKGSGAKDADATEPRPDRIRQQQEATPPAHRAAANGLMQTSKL
In test [11] the target is human somatostatin receptor subtype SSTR4 (human) (UniProt P31391). Kind of test: FACS, transfected HEK-293 cells; normalised to Compound 1.
Test [12] addresses human somatostatin receptor subtype SSTR1 (human) (UniProt P30872). Described as above.
Test [13] addresses human somatostatin receptor subtype SSTR3 (human) (UniProt P32745). Described as above.
The target of test [14] is human somatostatin receptor subtype SSTR2 (human) (UniProt P30874). The description is as above.
The target in test [15] is human somatostatin receptor subtype SSTR5 (human) (UniProt P35346). The description is as above.
Test [16] has as its target T1, human somatostatin receptor subtype SSTR5 (human, UniProt P35346 1-364).
T1 construct: whole, on cells; also called SSTRS
Kind of test: FACS, transfected HEK-293 cells; row normalised to highest. On the procedure:
(§1) Biological activity assessment of the compounds to define a specific affinity to each subtype was performed by FACS and fluorescence imaging methods.
(§2) The transfection process is illustrated in FIG. 1. The transient transfection process was carried out before each experiment. Briefly, HEK cells were cultured in standard cell growth conditions. For testing, the cells were transferred into 96-well plates. The tested compounds were dissolved in DMSO and then diluted in a buffer solution to a final DMSO concentration of 5% as a composition according to the teachings herein. Various amounts of the thus-prepared compositions were added to the cells in medium in the 96-well plates and allowed to incubate for between 1 and 24 hours. Binding was determined using fluorescent microscopy and FACS.
(§3) The cells were incubated for additional time intervals ranging from 0.5-24 hr. At the end of the incubation period, supernatant was discarded and the cells were washed twice with cold PBS. The plates were examined using IX81 inverted microscope (Olympus, Japan) equipped with PR71 digital camera. Additionally, a FACS assay was used for quantitative analysis.

Test [17] has as its target T2, human somatostatin receptor subtype SSTR1 (human, UniProt P30872 1-391).
T2 construct: whole, on cells
The description is as above. Here is the method: as §1, §2, §3

For test [18], the target named is T3, human somatostatin receptor subtype SSTR4 (human, UniProt P31391 1-388).
T3 construct: whole, on cells
T3 sequence (P31391 whole entry): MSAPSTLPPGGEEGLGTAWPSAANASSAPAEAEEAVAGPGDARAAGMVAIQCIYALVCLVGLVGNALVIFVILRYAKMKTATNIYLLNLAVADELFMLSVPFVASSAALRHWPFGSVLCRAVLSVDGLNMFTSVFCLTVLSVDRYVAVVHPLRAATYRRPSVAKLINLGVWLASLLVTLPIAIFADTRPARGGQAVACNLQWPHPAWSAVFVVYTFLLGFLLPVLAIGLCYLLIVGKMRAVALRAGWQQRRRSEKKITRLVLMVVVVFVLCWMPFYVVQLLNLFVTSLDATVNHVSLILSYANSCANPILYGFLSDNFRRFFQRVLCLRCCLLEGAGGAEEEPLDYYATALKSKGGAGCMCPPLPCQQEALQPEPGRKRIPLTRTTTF
The description is as above. On the procedure: as §1, §2, §3

Test [19] addresses T4, human somatostatin receptor subtype SSTR2 (human, UniProt P30874 1-369).
T4 construct: whole, on cells
The test is described as above. On the procedure:
as §1, §2, §3

Test [20] has as its target T5, human somatostatin receptor subtype SSTR3 (human, UniProt P32745 1-418).
T5 construct: whole, on cells
The test is described as above. On the procedure:
as §1, §2, §3

Test [21] has as its target T1, human somatostatin receptor subtype …. Briefly: FACS, transfected HEK-293 cells; normalised to Compound 1. Here is the method:
as §1, §2, §3

In test [22] the target is T2, human somatostatin receptor subtype …. The description is as above. Here is the method: as §1, §2, §3
In test [23] the target is T3, human somatostatin receptor subtype …. Described as above. Here is the method:
as §1, §2, §3

The target in test [24] is T4, human somatostatin receptor subtype …. The description is as above. Here is the method: as §1, §2, §3
In test [25] the target is T5, human somatostatin receptor subtype …. Described as above. On the procedure:
as §1, §2, §3

Test [26] deals with T1, human somatostatin receptor subtype …. Briefly: FACS, transfected HEK-293 cells. On the procedure: as §1, §2, §3
Test [27] deals with T3, human somatostatin receptor subtype …. Briefly: FACS, transfected HEK-293 cells. Here is the method:
as §1, §2, §3

For test [28], the target named is T4, human somatostatin receptor subtype …. Kind of test: FACS, transfected HEK-293 cells. Here is the method:
as §1, §2, §3

Test [29] deals with T5, human somatostatin receptor subtype …. Briefly: FACS, transfected HEK-293 cells. Here is the method: as §1, §2, §3

*1 amine or outer side, *2 acyl side, *3 side chain or, on linkers, in order; H or OH if unused. Bridges are numbered along the chain shown (N, C = ends). Primed or numbered codes have the meaning given here. [ ]: non-standard residue; d: D form. N(2-mercaptoethyl)Gly = O=C(CN(CCS[*:3])[*:1])[*:2]; FITC′ = fluorescein isothiocyanate; GABA = NCCCC(=O)O

Results on three molecules are retold here after US20170298113A1 (TEL HASHOMER MEDICAL RESEARCH INFRASTRUCTURE AND SERVICES, published 2017).

Chain of human somatostatin receptor subtype SSTR4 (human) (P31391 whole entry): as above
T4 sequence (P30874 whole entry): as the sequence (P30874 whole entry) above
Chain of human somatostatin receptor subtype SSTR3 (human) (P32745 whole entry): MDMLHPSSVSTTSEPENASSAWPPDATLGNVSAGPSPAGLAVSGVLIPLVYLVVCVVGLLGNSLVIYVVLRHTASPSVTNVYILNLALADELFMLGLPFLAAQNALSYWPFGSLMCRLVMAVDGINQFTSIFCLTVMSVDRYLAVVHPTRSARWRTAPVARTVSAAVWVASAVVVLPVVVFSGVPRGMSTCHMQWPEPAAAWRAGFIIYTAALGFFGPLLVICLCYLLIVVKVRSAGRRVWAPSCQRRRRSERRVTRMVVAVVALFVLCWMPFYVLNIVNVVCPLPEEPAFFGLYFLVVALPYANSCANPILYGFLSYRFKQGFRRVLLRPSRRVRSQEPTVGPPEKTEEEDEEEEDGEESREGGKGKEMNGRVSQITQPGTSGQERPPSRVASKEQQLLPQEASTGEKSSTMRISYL
T5 sequence (P32745 whole entry): as above
T1 sequence (P35346 whole entry): as the sequence (P35346 whole entry) above
T2 sequence (P30872 whole entry): as the sequence (P30872 whole entry) above

B1: Compound 15 (peptide)
peptide: {FITC′-GABA}-[dF]CFW[dW]RTF[N(2-mercaptoethyl)Gly]-NH2
modifications: disulfide 2-9
In the case of B1, the Relative binding affinity in test [1] amounted to 9%; in test [2], 4%; in test [3], 13.5%; in [4] it was 5%; in [5], 7.5%. In addition, the Adjusted binding affinity in [6] stood at 0.67; in test [7], 0.3; in test [8], 1; in test [9], 0.37; in test [10] it was 0.56. Further, the Binding affinity relative to Compound 1 (% of Compound 1) was 40 in [11]; 133 in [12]; 79 in test [13]; 77 in [14]; 26 in test [15].

B2: Compound 4 (peptide)
peptide: {FITC′-GABA}-[dF]CYW[dW]KTF[N(2-mercaptoethyl)Gly]-NH2
modifications: disulfide 2-9
On to B2, for which the Relative binding affinity in [1] turned out to be 13.3%; in test [2] it was 3.6%; in test [3], 15.7%; in test [4], 4.3%; in test [5] it was 9.3%. Moreover, the Adjusted binding affinity came to 0.33 in test [6]; 0.13 in test [7]; 1 in test [8]; 0.33 in [9]; 0.4 in [10]. Besides, the Binding affinity relative to Compound 1 (% of Compound 1) in [11] came to 36; in [12], 100; in [13] it was 141; in [14], 123; in [15], 4.

B3: Compound 9 (peptide)
peptide: {FITC′-GABA}-CRF[dW]KTF[N(2-mercaptoethyl)Gly]-NH2
modifications: disulfide 1-8
notes: Synthetic cyclic peptide-fluorescent agent conjugate; also called 21
B3: the Adjusted binding affinity in [16] amounted to 1; in test [17], 0; in test [18], 0.75; in [19], 0.5; in [20], 0.7. Moreover, the “Binding affinity relative to Compound 1” value in test [21] was 70 % of Compound 1; in test [22] it was 0 % of Compound 1; in test [23], 67 % of Compound 1; in test [24], 154 % of Compound 1; in [25], 82 % of Compound 1. Further, the Relative binding affinity in [26] was 20%; in [27] it was 15%; in test [28] it was 10%; in test [29] it was 14%.
